According to IntAct's records for PubMed 19400808:

B1: Nitrogen regulatory protein (Escherichia coli (strain K12)), P69829 (parent)
chain: MTNNDTTLQLSSVLNRECTRSRVHCQSKKRALEIISELAAKQLSLPPQVVFEAILTREKMGSTGIGNGIAIPHGKLEEDTLRAVGVFVQLETPIAFDAIDNQPVDLLFALLVPADQTKTHLHTLSLVAKRLADKTICRRLRAAQSDEELYQIITDTEGTPDEA
partner: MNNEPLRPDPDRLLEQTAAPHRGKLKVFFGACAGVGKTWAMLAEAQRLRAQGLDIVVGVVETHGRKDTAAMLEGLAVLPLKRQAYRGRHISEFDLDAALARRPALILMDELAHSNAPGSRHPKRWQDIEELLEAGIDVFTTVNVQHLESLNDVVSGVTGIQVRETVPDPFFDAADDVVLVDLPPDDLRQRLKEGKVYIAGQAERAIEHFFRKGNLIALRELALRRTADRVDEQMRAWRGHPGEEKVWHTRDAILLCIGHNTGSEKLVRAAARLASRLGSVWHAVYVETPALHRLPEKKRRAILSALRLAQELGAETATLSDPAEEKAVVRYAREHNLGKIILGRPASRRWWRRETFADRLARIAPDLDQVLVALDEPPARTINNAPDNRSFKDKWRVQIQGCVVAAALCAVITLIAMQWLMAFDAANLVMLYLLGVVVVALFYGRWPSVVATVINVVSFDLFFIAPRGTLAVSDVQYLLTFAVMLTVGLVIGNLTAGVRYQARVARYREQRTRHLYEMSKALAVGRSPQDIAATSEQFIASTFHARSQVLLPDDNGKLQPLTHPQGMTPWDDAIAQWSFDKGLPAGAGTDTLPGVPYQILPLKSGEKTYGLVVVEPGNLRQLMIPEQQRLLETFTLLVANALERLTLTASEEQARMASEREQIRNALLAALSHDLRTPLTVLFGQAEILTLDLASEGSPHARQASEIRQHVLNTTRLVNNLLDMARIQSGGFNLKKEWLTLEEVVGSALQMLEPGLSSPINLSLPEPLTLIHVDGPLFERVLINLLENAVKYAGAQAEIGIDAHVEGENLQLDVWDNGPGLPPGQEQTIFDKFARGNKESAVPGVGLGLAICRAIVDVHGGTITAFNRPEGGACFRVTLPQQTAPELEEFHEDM

Variants of: B1
Details: with kdpd_ecoli kdpD

| Variant | effect of a mutation on the interaction |
| --- | --- |
| H73A | increasing interaction strength |
